Test results from patent publication US20230250154A1 (CYTONICS, published 2023).

T1: Cathepsin G (UniProt P08311 21-244)
T1 sequence (looked up): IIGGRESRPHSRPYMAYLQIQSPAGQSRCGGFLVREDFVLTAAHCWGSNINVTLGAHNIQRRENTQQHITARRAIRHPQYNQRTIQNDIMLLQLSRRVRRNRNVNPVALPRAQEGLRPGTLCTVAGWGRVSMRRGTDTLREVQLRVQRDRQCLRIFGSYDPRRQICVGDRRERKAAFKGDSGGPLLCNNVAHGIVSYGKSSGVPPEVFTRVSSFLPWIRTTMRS

T2: ADAMTS4 (human, UniProt O75173 213-685, limits assumed)
T2 sequence (looked up): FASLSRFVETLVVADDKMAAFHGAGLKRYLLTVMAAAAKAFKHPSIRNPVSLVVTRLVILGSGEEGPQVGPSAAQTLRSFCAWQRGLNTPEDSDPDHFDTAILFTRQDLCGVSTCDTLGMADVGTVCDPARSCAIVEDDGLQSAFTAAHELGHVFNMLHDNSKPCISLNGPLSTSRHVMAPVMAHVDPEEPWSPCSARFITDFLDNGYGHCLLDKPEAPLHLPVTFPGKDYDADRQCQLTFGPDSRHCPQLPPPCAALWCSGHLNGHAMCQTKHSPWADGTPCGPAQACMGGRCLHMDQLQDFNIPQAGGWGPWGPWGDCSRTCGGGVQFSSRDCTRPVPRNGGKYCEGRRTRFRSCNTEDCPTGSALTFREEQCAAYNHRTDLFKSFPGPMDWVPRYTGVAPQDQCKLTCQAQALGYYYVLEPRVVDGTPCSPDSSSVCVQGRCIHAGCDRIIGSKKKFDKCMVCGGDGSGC

T3: ADAMTS5 (human, UniProt Q9UNA0 262-622, limits assumed)
T3 sequence (looked up): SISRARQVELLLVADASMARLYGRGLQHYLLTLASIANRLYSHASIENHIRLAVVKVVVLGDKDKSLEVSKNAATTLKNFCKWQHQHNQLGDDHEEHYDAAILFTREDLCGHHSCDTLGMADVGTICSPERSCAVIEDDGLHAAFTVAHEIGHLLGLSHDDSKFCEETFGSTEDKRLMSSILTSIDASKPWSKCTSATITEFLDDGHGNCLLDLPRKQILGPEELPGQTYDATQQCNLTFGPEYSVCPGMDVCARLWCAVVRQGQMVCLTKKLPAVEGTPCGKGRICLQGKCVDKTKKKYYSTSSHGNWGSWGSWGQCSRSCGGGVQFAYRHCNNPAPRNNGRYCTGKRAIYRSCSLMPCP

T4: MMP1 (human, UniProt P03956 100-469, limits assumed)
T4 sequence (looked up): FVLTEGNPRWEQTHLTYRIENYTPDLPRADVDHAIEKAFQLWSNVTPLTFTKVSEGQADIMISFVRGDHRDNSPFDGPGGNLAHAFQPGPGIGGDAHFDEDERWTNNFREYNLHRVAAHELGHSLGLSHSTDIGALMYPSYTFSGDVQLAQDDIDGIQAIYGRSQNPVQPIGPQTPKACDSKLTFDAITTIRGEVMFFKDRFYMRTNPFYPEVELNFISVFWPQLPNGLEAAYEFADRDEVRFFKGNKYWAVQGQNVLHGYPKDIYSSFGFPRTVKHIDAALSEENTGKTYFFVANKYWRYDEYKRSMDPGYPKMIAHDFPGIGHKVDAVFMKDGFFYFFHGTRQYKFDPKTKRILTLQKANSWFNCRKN

T5: MMP2 (human, UniProt P08253 110-660, limits assumed)
T5 sequence (looked up): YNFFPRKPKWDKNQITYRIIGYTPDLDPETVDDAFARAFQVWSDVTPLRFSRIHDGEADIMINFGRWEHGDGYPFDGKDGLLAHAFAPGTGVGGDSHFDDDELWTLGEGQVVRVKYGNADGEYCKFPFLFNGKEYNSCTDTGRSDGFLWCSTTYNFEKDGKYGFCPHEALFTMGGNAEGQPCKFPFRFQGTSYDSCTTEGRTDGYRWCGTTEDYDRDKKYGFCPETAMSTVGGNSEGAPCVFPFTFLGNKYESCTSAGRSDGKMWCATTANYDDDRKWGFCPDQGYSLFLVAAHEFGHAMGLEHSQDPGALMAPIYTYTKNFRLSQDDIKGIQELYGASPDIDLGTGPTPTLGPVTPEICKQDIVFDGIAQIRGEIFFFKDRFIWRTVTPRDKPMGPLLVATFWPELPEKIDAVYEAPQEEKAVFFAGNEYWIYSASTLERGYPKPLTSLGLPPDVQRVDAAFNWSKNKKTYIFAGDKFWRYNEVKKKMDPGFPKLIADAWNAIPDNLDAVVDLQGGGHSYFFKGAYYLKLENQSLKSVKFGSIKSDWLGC

B1: Variant A2M, bait region SEQ ID NO 132 (other)
chain: SVSGKPQYMVLVPSLLHTETTEKGCVLLSYLNETVTVSASLESVRGNRSLFTDLEAENDVLHCVAFAVPKSSSNEEVMFLTVQVKGPTQEFKKRTTVMVKNEDSLVFVQTDKSIYKPGQTVKFRVVSMDENFHPLNELIPLVYIQDPKGNRIAQWQSFQLEGGLKQFSFPLSSEPFQGSYKVVVQKKSGGRTEHPFTVEEFVLPKFEVQVTVPKIITILEEEMNVSVCGLYTYGKPVPGHVTVSICRKYSDASDCHGEDSQAFCEKFSGQLNSHGCFYQQVKTKVFQLKRKEYEMKLHTEAQIQEEGTVVELTGRQSSEITRTITKLSFVKVDSHFRQGIPFFGQVRLVDGKGVPIPNKVIFIRGNEANYYSNATTDEHGLVQFSINTTNVMGTSLTVRVNYKDRSPCYGYQWVSEEHEEAHHTAYLVFSPSKSFVHLEPMSHELPCGHTQTVQAHYILNGGTLLGLKKLSFYYLIMAKGGIVRTGTHGLLVKQEDMKGHFSISIPVKSDIAPVARLLIYAVLPTGDVIGDSAKYDVENCLANKVDLSFSPSQSLPASHAHLRVTAAPQSVCALRAVDQSVLLMKPDAELSASSVYNLLPEKDLTGFPGPLNDQDDEDCINRHNVYINGITYTPVSSTNEKDMYSFLEDMGLKAFTNSKIRKPKMCPQLEQYEMHGPEGEGEGEGIPENFFGVSELEGRGSSEDLVVQIVEEPHTKLRKYFPETWIWDLVVVNSAGVAEVGVTVPDTITEWKAGAFCLSEDAGLGISSTASLRAFQPFFVELTMPYSVIRGEAFTLKATVLNYLPKCIRVSVQLEASPAFLAVPVEKEQAPHCICANGRQTVSWAVTPKSLGNVNFTVSAEALESQELCGTEVPSVPEHGRKDTVIKPLLVEPEGLEKETTFNSLLCPSGGEVSEELSLKLPPNVVEESARASVSVLGDILGSAMQNTQNLLQMPYGCGEQNMVLFAPNIYVLDYLNETQQLTPEIKSKAIGYLNTGYQRQLNYKHYDGSYSTFGERYGRNQGNTWLTAFVLKTFAQARAYIFIDEAHITQALIWLSQRQKDNGCFRSSGSLLNNAIKGGVEDEVTLSAYITIALLEIPLTVTHPVVRNALFCLESAWKTAQEGDHGSHVYTKALLAYAFALAGNQDKRKEVLKSLNEEAVKKDNSVHWERPQKPKAPVGHFYEPQAPSAEVEMTSYVLLAYLTAQPAPTSEDLTSATNIVKWITKQQNAQGGFSSTQDTVVALHALSKYGAATFTRTGKAAQVTIQSSGTFSSKFQVDNNNRLLLQQVSLPELPGEYSMKVTGEGCVYLQTSLKYNILPEKEEFPFALGVQTLPQTCDEPKAHTSFQISLSVSYTGSRSASNMAIVDVKMVSGFIPLKPTVKMLERSNHVSRTEVSSNHVLIYLDKVSNQTLSLFFTVLQDVPVRDLKPAIVKVYDYYETDEFAIAEYNAPCSKDLGNADYKDDDDKGASHHHHHH
B2: Variant A2M, bait region SEQ ID NO 136 (other)
chain: SVSGKPQYMVLVPSLLHTETTEKGCVLLSYLNETVTVSASLESVRGNRSLFTDLEAENDVLHCVAFAVPKSSSNEEVMFLTVQVKGPTQEFKKRTTVMVKNEDSLVFVQTDKSIYKPGQTVKFRVVSMDENFHPLNELIPLVYIQDPKGNRIAQWQSFQLEGGLKQFSFPLSSEPFQGSYKVVVQKKSGGRTEHPFTVEEFVLPKFEVQVTVPKIITILEEEMNVSVCGLYTYGKPVPGHVTVSICRKYSDASDCHGEDSQAFCEKFSGQLNSHGCFYQQVKTKVFQLKRKEYEMKLHTEAQIQEEGTVVELTGRQSSEITRTITKLSFVKVDSHFRQGIPFFGQVRLVDGKGVPIPNKVIFIRGNEANYYSNATTDEHGLVQFSINTTNVMGTSLTVRVNYKDRSPCYGYQWVSEEHEEAHHTAYLVFSPSKSFVHLEPMSHELPCGHTQTVQAHYILNGGTLLGLKKLSFYYLIMAKGGIVRTGTHGLLVKQEDMKGHFSISIPVKSDIAPVARLLIYAVLPTGDVIGDSAKYDVENCLANKVDLSFSPSQSLPASHAHLRVTAAPQSVCALRAVDQSVLLMKPDAELSASSVYNLLPEKDLTGFPGPLNDQDDEDCINRHNVYINGITYTPVSSTNEKDMYSFLEDMGLKAFTNSKIRKPKMCPQLEQYEMHGPKEEEGLGSIPENFFGVSELEGRGSEGEGEGEGVEEPHTKLRKYFPETWIWDLVVVNSAGVAEVGVTVPDTITEWKAGAFCLSEDAGLGISSTASLRAFQPFFVELTMPYSVIRGEAFTLKATVLNYLPKCIRVSVQLEASPAFLAVPVEKEQAPHCICANGRQTVSWAVTPKSLGNVNFTVSAEALESQELCGTEVPSVPEHGRKDTVIKPLLVEPEGLEKETTFNSLLCPSGGEVSEELSLKLPPNVVEESARASVSVLGDILGSAMQNTQNLLQMPYGCGEQNMVLFAPNIYVLDYLNETQQLTPEIKSKAIGYLNTGYQRQLNYKHYDGSYSTFGERYGRNQGNTWLTAFVLKTFAQARAYIFIDEAHITQALIWLSQRQKDNGCFRSSGSLLNNAIKGGVEDEVTLSAYITIALLEIPLTVTHPVVRNALFCLESAWKTAQEGDHGSHVYTKALLAYAFALAGNQDKRKEVLKSLNEEAVKKDNSVHWERPQKPKAPVGHFYEPQAPSAEVEMTSYVLLAYLTAQPAPTSEDLTSATNIVKWITKQQNAQGGFSSTQDTVVALHALSKYGAATFTRTGKAAQVTIQSSGTFSSKFQVDNNNRLLLQQVSLPELPGEYSMKVTGEGCVYLQTSLKYNILPEKEEFPFALGVQTLPQTCDEPKAHTSFQISLSVSYTGSRSASNMAIVDVKMVSGFIPLKPTVKMLERSNHVSRTEVSSNHVLIYLDKVSNQTLSLFFTVLQDVPVRDLKPAIVKVYDYYETDEFAIAEYNAPCSKDLGNADYKDDDDKGASHHHHHH

What was measured:
Assay in all cases: cell-based or functional assay
Elastase = target: Elastase
Cathepsin G = target: T1, Cathepsin G
bovine trypsin = bovine trypsin (bovine, UniProt P00760 24-246)
chymotrypsin = target: chymotrypsin
ADAMTS4 = target: T2, ADAMTS4
ADAMTS5 = target: T3, ADAMTS5
MMP1 = target: T4, MMP1
MMP8 = MMP8 (human, UniProt P22894 101-467, limits assumed)
MMP13 = MMP13 (human, UniProt P45452 104-471, limits assumed)
MMP2 = target: T5, MMP2
MMP9 = MMP9 (human, UniProt P14780 107-707, limits assumed)
MMP3 = MMP3 (human, UniProt P08254 100-477, limits assumed)
MMP12 = MMP12 (human, UniProt P39900 106-470, limits assumed)
MMP12, sequence (P39900 106-470 limits assumed): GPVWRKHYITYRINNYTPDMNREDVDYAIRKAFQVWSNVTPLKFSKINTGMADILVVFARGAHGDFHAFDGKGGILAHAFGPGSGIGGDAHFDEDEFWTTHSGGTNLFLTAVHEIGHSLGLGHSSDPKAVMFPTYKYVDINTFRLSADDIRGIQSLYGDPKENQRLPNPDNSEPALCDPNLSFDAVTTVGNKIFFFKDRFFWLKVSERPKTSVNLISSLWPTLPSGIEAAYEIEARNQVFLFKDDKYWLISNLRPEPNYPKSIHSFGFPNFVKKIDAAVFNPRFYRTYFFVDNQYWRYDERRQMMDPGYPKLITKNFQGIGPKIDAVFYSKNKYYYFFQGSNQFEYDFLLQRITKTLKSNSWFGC

bovine trypsin, sequence (P00760 24-246): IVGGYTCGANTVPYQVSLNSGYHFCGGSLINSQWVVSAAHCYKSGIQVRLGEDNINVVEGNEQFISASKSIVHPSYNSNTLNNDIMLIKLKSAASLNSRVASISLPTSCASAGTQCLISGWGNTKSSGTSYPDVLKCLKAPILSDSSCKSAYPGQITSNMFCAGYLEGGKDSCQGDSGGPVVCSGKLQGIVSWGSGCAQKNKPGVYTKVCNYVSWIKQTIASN
MMP8, sequence (P22894 101-467 limits assumed): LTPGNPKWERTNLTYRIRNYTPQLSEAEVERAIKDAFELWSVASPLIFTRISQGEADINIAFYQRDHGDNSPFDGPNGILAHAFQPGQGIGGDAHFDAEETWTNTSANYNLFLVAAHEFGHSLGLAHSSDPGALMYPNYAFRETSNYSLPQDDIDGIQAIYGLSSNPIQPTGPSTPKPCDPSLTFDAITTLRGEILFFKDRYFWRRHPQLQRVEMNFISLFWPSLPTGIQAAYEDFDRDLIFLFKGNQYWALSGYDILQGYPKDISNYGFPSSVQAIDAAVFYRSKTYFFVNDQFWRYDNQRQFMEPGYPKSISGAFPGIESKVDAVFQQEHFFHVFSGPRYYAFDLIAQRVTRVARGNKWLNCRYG
MMP3, sequence (P08254 100-477 limits assumed): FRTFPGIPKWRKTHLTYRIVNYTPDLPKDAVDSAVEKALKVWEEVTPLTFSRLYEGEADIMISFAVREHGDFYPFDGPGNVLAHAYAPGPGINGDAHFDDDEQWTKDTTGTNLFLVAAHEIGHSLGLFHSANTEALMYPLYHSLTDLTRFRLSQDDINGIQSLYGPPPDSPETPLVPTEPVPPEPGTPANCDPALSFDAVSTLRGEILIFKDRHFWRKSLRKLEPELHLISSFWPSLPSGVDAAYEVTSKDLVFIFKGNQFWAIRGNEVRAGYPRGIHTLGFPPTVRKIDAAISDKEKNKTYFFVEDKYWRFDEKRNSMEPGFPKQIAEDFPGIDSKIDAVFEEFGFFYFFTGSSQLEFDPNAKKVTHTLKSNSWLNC
MMP9, sequence (P14780 107-707 limits assumed): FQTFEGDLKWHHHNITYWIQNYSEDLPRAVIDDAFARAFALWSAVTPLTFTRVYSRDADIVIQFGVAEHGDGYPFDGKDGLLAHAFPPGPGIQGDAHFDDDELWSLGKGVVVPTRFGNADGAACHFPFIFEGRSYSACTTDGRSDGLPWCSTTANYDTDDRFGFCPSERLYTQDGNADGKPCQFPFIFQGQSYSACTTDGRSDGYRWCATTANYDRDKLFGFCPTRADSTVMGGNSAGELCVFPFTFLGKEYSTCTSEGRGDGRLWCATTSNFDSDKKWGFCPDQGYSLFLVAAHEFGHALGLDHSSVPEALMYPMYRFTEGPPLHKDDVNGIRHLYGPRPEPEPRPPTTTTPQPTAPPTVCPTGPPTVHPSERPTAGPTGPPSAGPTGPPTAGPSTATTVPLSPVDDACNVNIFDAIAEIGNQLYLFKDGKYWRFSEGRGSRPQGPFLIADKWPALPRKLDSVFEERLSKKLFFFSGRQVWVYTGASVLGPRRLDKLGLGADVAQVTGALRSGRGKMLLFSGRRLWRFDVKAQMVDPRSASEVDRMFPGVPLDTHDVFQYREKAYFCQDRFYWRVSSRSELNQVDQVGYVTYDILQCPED

Row | Binder | Protease Inhibition (% of WT) (Elastase) | Protease Inhibition (% of WT) (Cathepsin G) | Protease Inhibition (% of WT) (bovine trypsin) | Protease Inhibition (% of WT) (chymotrypsin) | Protease Inhibition (% of WT) (ADAMTS4) | Protease Inhibition (% of WT) (ADAMTS5) | Protease Inhibition (% of WT) (MMP1) | Protease Inhibition (% of WT) (MMP8) | Protease Inhibition (% of WT) (MMP13) | Protease Inhibition (% of WT) (MMP2) | Protease Inhibition (% of WT) (MMP9) | Protease Inhibition (% of WT) (MMP3) | Protease Inhibition (% of WT) (MMP12)
1 | B1 | 300 % of WT | 437 % of WT | 20 % of WT | 10 % of WT | 86 % of WT | 185 % of WT | 388 % of WT | 161 % of WT | 117 % of WT | 67 % of WT | 500 % of WT | 100 % of WT | 136 % of WT
2 | B2 | 250 % of WT | 376 % of WT | 221 % of WT | 25 % of WT | 80 % of WT | 373 % of WT | 370 % of WT | 133 % of WT | 113 % of WT | 47 % of WT | 500 % of WT | 130 % of WT | 150 % of WT
